The record followed here is paper PMC7515702.

Targets include PARP1 H862D H862D (UniProt P09874); PARP1 H862A H862A (UniProt P09874); PARP1 WT (UniProt P09874); PARP1 E988K E988K (UniProt P09874).
Common to all, as to assay: fluorescence polarization
What all share (conditions): no NAD+, 250 mM NaCl; Kd: 5 nM probe, 12 mM HEPES pH 8.0, 250 mM NaCl, 4% glycerol, 5.7 mM beta-mercaptoethanol, 0.05 mg/ml BSA, 30 min RT. Competition: 40 nM PARP1, 20 nM probe …
Background: In fluorescence polarisation assays a small probe gives low polarisation when free and higher when bound to something large.

Sequence of PARP1 H862A H862A (P09874 whole entry H862A): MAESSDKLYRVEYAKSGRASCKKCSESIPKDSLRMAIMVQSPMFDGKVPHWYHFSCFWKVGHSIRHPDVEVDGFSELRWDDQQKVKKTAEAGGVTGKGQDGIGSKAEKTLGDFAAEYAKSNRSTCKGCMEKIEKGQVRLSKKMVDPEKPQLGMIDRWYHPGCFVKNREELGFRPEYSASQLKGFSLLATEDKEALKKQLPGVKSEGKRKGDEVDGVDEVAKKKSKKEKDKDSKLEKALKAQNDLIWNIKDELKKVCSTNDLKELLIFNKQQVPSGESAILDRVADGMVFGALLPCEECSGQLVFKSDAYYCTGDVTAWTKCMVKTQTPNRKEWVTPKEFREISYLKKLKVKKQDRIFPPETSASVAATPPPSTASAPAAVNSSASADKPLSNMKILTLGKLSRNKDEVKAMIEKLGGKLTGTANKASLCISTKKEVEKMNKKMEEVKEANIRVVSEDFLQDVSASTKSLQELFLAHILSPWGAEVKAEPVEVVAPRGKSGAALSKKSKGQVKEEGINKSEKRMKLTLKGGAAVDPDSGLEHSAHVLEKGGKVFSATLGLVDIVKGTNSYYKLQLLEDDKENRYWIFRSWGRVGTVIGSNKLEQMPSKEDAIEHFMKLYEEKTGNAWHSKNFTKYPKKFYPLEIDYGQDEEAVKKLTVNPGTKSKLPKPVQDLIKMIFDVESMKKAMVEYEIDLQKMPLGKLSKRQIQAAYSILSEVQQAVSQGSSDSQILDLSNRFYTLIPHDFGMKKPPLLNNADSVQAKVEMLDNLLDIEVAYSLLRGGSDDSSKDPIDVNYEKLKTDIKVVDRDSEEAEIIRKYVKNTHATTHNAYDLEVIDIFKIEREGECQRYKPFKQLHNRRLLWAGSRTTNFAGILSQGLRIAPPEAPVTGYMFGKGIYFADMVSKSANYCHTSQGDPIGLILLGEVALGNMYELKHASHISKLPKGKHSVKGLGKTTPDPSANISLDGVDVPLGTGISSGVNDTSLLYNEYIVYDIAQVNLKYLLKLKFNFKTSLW
Sequence of PARP1 E988K E988K (P09874 whole entry E988K): as the sequence (P09874 whole entry H862A) above, with A862H, E988K counted along it
Sequence of PARP1 H862D H862D (P09874 whole entry H862D): as the sequence (P09874 whole entry H862A) above, with A862D counted along it
Sequence of PARP1 WT (P09874 whole entry): as the sequence (P09874 whole entry H862A) above, with A862H counted along it

As a reminder, the Kd is the free concentration of one partner at which half of the binding sites on the other are occupied at equilibrium, for simple one-to-one binding. A low value points to a tighter complex. Consider “GCTGAGCTTCTGGTGAAGCTCAGCTCGCGGCAGCTGGTGCTGCCGCGA [nicked dumbbell DNA (SSB probe)]”, for which the Kd was determined as 0.0112 µM in the data set with PARP1 H862D H862D, 0.176 µM with PARP1 H862A H862A, 0.122 µM in the data set with PARP1 WT and 0.0074 µM in the data set with PARP1 E988K E988K.
